For experiment [1], the target named is T1, human FSTL1 (construct not stated) (human, UniProt Q12841 21-308).
T1 construct: also called human FSTL1 antigen; FSTL1 (R&D Systems, Inc. Cat#1694-FN-050)
T1 sequence: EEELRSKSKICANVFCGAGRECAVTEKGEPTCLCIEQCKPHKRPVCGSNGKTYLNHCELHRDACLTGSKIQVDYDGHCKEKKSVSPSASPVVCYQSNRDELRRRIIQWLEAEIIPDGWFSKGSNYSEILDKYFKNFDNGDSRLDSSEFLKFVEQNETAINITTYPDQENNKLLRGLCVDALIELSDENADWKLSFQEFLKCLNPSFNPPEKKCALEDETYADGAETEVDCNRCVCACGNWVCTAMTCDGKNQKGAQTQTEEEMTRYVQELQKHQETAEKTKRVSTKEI
Kind of experiment: BLI (BLItz), biotinylated antigen 5 µg/ml on streptavidin sensor, antibody 0 to 40 ug/ml. The protocol: The binding activity of the obtained purified antibody against FSTL1 was measured by use of the BLI method (BLItz, Pall Corp., 45-5000). The antigen was biotinylated using EZ-Link NHS-PEG4-Biotin (Thermo Fisher Scientific Inc., 21329). Streptavidin Tray (Pall Corp., 18-5019) was used as a sensor chip for the BLI method. The sensor chip was hydrated with PBS (Wako Pure Chemical Industries, Ltd., 166-23555) for 10 minutes or longer. 5 μg/ml of the biotinylated antigen was immobilized onto the hydrated sensor chip for 300 seconds. The antibody was adjusted to 40, 20, 10, 5, 2.5, or 0 ug/ml and reacted therewith for 120 seconds, and dissociation was measured for 300 seconds. When the antibody concentration of 0 ug/ml was used as a reference, the KD value was calculated.

Experiment [2] concerns the target T2, His-tagged mouse FSTL1 (amino acid sequence of mouse FSTL1 used in Examples, SEQ ID NO: 72) (mouse, UniProt Q62356 19-306).
T2 sequence: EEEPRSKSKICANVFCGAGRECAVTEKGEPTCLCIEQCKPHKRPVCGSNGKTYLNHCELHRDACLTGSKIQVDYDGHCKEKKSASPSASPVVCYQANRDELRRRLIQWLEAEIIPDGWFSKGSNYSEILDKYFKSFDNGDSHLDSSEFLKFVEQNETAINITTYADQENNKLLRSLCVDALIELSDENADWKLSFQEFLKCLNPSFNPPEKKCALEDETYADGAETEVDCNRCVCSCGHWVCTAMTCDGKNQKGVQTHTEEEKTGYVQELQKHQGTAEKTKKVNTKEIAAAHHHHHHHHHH
Description: ELISA, mouse FSTL1 coated (FIG. 1B). For orientation: ELISA stands for enzyme-linked immunosorbent assay.

Experiment [3] addresses T1, human FSTL1 (construct not stated). Kind of experiment: SPR (Biacore T-200), captured antibody, human FSTL1 10 µg/ml. The protocol:
(§1) The mouse chimeric antibodies were immobilized onto Sensor Chip CM5 (GE Healthcare Japan Corp., BR-1005-30) using Mouse Antibody Capture Kit (GE Healthcare Japan Corp., BR-1008-38), and their affinity for human FSTL1 was calculated using Biacore T-200 (GE Healthcare Japan Corp.).
Background: In SPR one partner is held on a chip, and binding of the other changes the refractive index at the surface.

For experiment [4] the target is unchanged. Described as above. As for the experimental part:
as §1
(§2) First, the exhaustive activity comparison of the obtained antibodies was conducted with the human FSTL1 concentration fixed to 10 μg/ml (Table 33-1, FIG. 28).
The source holds these as a separate data set.

Experiment [5] shares this target. The experiment is described as above. As for the experimental part: as §1, §2
This is another data set of the same source.

Experiment [6] shares this target. The description is as above. The protocol:
as §1, §2
This is another data set of the same source.

In experiment [7] the target is T3, His-tagged human FSTL1 (amino acid sequence of human FSTL1 used in Examples, SEQ ID NO: 70) (human, UniProt Q12841 21-308).
T3 construct: Parent of the deletion mutants
T3 sequence: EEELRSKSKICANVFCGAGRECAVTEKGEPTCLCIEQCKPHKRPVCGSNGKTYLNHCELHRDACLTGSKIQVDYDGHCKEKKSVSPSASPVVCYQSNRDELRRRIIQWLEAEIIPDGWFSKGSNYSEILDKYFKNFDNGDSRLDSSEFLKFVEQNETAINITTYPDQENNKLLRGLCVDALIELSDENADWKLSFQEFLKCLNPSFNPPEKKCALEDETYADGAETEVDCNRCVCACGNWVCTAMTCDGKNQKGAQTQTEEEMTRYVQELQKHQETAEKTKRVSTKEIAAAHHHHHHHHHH
Description: ELISA, human FSTL1 coated (FIG. 3A).

Experiment [8] deals with T2, His-tagged mouse FSTL1 (amino acid …). Kind of experiment: ELISA, mouse FSTL1 coated (FIG. 3B).
Experiment [9] addresses T1, human FSTL1 (construct not stated). Description: SPR (Biacore T-200), antibody on Human Antibody Capture Kit, human FSTL1 0 to 20 µg/ml. As for the experimental part: (§3) Nine IgG1-type humanized antibodies of #6-55 were immobilized onto Sensor Chip CM5 (GE Healthcare Japan Corp., BR-1005-30) using Human Antibody Capture Kit (GE Healthcare Japan Corp., BR-1008-38), and their affinity for human FSTL1 was calculated using Biacore T-200 (GE Healthcare Japan Corp.). […] Among the 9 IgG1-type humanized antibodies of #6-55, a clone composed of a combination “H(2)-L(1)” having a […] KD value was selected as a lead antibody.

For experiment [10] the target is unchanged. The description is as above. As for the experimental part: as §3
This is another data set of the same source.

The target is the same in experiment [11]. The description is as above. The protocol:
as §3
This is another data set of the same source.

For experiment [12] the target is unchanged. The experiment is described as above. As for the experimental part:
as §3
This is another data set of the same source.

Like-named read-outs stand apart in the source and are kept apart here.

B1: optimized humanized antibody (humanized #6-55 H(2)-L(1), human IgG4 H chain constant region, λ L chain constant region) (antibody)
heavy: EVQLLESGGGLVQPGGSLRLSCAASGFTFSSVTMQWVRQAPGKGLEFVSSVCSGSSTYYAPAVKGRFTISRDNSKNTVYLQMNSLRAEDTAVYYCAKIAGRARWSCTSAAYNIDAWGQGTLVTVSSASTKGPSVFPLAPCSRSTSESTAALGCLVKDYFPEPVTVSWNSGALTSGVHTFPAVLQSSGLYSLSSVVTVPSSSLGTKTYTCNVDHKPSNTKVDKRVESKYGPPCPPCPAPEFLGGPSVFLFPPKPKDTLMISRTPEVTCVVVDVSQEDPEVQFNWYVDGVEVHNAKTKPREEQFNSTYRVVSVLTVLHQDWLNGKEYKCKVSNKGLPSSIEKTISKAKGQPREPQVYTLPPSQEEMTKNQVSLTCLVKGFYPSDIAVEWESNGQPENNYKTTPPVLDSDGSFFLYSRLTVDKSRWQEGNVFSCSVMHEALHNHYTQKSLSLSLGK
light: SYELTQPPSVSVSPGQTARITCSGGGNNYGWYQQKPGQAPVTVIYYNDNRPSGIPERFSGSNSGSTTTLTISGVQAEDEADYYCGSWDSNTDSGIFGGGTKLTVLGQPKAAPSVTLFPPSSEELQANKATLVCLISDFYPGAVTVAWKADSSPVKAGVETTTPSKQSNNKYAASSYLSLTPEQWKSHRSYSCQVTHEGSTVEKTVAPTECS
notes: Expressed in ExpiCHO
For orientation: Kd means a measure of binding affinity in units of concentration. B1: in experiment [1], the dissociation constant (Kd) was 10.9 nM.

B2: anti-FSTL1 antibody clone #7-34 (chicken-mouse chimeric antibody) (antibody, mouse IgG1, kappa, V domains shown)
VH: AVTLDESGGGLQTPGGGLSLVCKASGFTFSSVTMQWVRQAPGKGLEWVASICSGSSTYYGPAVKGRATISRDNGQNTVRLQLNNLRAEDTATYYCAKIVGRGRWSCTSAAYNIDAWGHGTEVIVSS
VL: ASTQPSSVSANPGETVKITCSGGGNNYGWYQQKSPGSAPVTVIYYNNNRPSNIPSRFSGSTSGSTSTLTITGVQAEDEAVYYCGSYEGSTDSGIFGAGTTLTVLG
As to B2, the binding result in experiment [2] was “binds”. For the same molecule, the “Binding amount (RU)” value in experiment [3], in [4], in experiment [5] and in [6] was 14.2 RU throughout. In addition, the “Dissociation amount (RU)” value in experiment [3], in experiment [4], in experiment [5] and in [6] was 2.5 RU each time.

B3: anti-FSTL1 antibody clone #22 (chicken-mouse chimeric antibody) (antibody, mouse IgG1, kappa, V domains shown)
VH: AVTLDESGGGLQTPGGALSLVCKASGFTFSSNGMAWVRQAPGKGLELVARINSSGSYTNYGAAVKGRATISRDNGQSTVRLQLNNLRAEDTGTYYCAKGASGYGAYPGNIDAWGHGTEVIVSS
VL: ASTQPSSVSANPGETVKITCSGGSGSYGWFQQKSPGSAPVTVIYWDDRRPSDIPSRFSGSKSGSIHTLTITGVQADDEAVYLCGNAVRSGTGYVGVFGAGTTLTVLG
Take B3: the binding result in experiment [7] and in experiment [8] was “binds” each time.

B4: humanized #6-55 antibody H(2)-L(1) (IgG1 type) (antibody)
heavy: not shown
light: SYELTQPPSVSVSPGQTARITCSGGGNNYGWYQQKPGQAPVTVIYYNDNRPSGIPERFSGSNSGSTTTLTISGVQAEDEADYYCGSWDSNTDSGIFGGGTKLTVLGTVAAPSVFIFPPSDEQLKSGTASVVCLLNNFYPREAKVQWKVDNALQSGNSQESVTEQDSKDSTYSLSSTLTLSKADYEKHKVYACEVTHQGLSSPVTKSFNRGEC
notes: Human IgG1 constant region; expressed in HEK293; lead antibody; also called h#6-55 H(2)-L(1); humanized #6-55 H chain (2)+L chain (1)
As to B4, the Kd in experiment [9], in [10], in experiment [11] and in experiment [12] was 60.5 nM in each case.

The values are drawn from patent US20180021429A1 (PHARMA FOODS INTERNATIONAL, published 2018).
